Here are results for five molecules from paper PMC8323339 (Immunity, 2021).

Like-named read-outs stand apart in the source and are kept apart here.

The target of assay [1] is T1, SARS-CoV-2 Spike receptor-binding domain (RBD), wild type, as used for BLI (SARS-CoV-2, wild type, UniProt P0DTC2). The experiment in a line: BLI. (BLI is a label-free optical method that tracks binding on a fibre tip over time.)
Assay [2] has as its target SARS-CoV-2 RBD, as used for crystallization (SARS-CoV-2, wild type, UniProt P0DTC2). The experiment in a line: crystal structure.
The target in assay [3] is T1, SARS-CoV-2 Spike receptor-binding ….

B1: C548 IgG (antibody, V domains shown)
VH: QVQLVQSGAEVKKPGSSVKVSCKASGGTFSSYAISWVRQAPGQGLEWMGGIIPIFGTANYAQKFQGRVTITADESTSTAYMELSSLRSEDTAVYYCARREAYGPRDYYYYYGMDVWGQGTTVTVSS
VL: QSALTQPPSASASLGASVTLTCTLSSGYSNYKVDWYQQRPGKGPRFVMRVGTGGIVGSKGDGIPDRFSVLGSGLNRYLTIKNIQEEDESDYHCGADQGSGSNFVGVFGGGTKLTV
On to B1, for which the binding result in assay [1] is “binds”.

B2: C099 IgG (antibody, V domains shown)
VH: EVQLVESGGGLIQPGGSLRLSCAASGITVSSNYMSWVRQAPGKGLEWVSVMYAGGSTFYADSVKGRFTISRDDSKNTLFLQMNSLRAEDTAIYYCARDLYSSGGTDIWGQGTMVTVSS
VL: EIVLTQSPGTLSLSPGERATLSCRASQSIGSSYLAWYQQKPGLAPRLLIYGASRRATGIPDKFSGSGSGADFTLTISRLEPEDFAVYYCQQYGSSPGTFGQGTKVEIK
On to B2, for which the binding result in assay [1] was “binds”.

B3: C099 Fab (Fab, V domains shown)
VH: B2 VH
VL: B2 VL
Regarding B3, the binding result in assay [2] is recorded as “binds”.

B4: C549 (antibody, V domains shown)
VH: QVQLVQSGAEVKKPGSSVKVSCKASGGTFSTSAISWVRQAPGQGLEWMGGIIPFFGTPNYAQKFQGRVTIIADESTTTAYMELSGLRFEDSAVYYCARREPYGPRDYYYFFGMDVWGPGTTVTVSS
VL: QSALTQPPFASASLGASVTLTCTLSSDYSYYKVDWYQQRPGKGPRFVIRVGPGGIVGSKGDGFPDRFSVLGSGLNRSLTINNIQEEDEGDYHCGADEGSGGTFVGVFGGGTKLTV
Take B4: in assay [3], the binding result is listed as “binds”.

B5: C080 IgG (antibody, V domains shown)
VH: EVQLVQSGAEVKKPGESLNISCKASGYSFTIYWIAWVRQLPGKGLEWMGIIYPGDSDTRYSPSFQGQVTISADKSISTAYLQWRSLKASDSAVYYCARGVAVDWYFDLWGRGTLVTVSS
VL: QSVLTQPPSVSGAPGQRVTISCAGSSSNIGAGFDVYWYQQLPGTAPKLLIYGNNNRPSGVPDRFSGSKSGTSASLAITGLQAEDEADYYCQSSGSVLSDLYVFGTGTKVTVL
As to B5, the binding result in assay [1] is “binds”.
